Target: the molecule itself
Assay: SDS-PAGE and Western blot of the purified protein; 1 ug purified histone on 16.5% Tris-Tricine SDS gels, Coomassie stain or Western blot with polyclonal anti-HTkA antibodies; dimers and higher-order species persist after extensive heating

B1: Thermococcus kodakarensis histone A protein (HTkA^WT) (natural protein)
chain: not shown
notes: Histone A (HTkA) of Thermococcus kodakarensis, encoded by TK1413 on plasmid pTS600; No tag is mentioned; purified by heparin and size exclusion; also called TK1413; recombinant HTkA; source: E. coli Rosetta 2 (DE3), purified (heat treatment, HiTrap Heparin, Sephacryl S-100)
binding result: binds

Source: article PMC10899632, “Archaeal histone-based chromatin structures regulate transcription elongation rates” (Communications Biology, 2024)
